Data on three substances can be found in article PMC12151457.

The target in the data set is Asp229 (UniProt position 204, GLPADDRVGDK). The experiment in a line: kinetics. The following applies: 25 °C, 100 mM NaCl, 10 mM HEPES.
Where [1] appears, read: free enzyme (the authors interpret the pH dependence of kcat/KM as ionisation of the catalytic Asp in the substrate-free enzyme).

Regarding “V4 Kemp eliminase (GNCA4-12 ancestral beta-lactamase scaffold with extra C-terminal polypeptide segment) (synthetic construct (reconstructed ancestral class A beta-lactamase, GNCA node, last common ancestor of various Gram-negative bacteria); W229D;F290W;I250V;R256H;L260F;V261L;H291V;insertion of extra C-terminal polypeptide segment (sequence not stated))”, under setting [1], the pKa result is listed as “about 7”.

Where the note is “free enzyme (the authors state that kcat/KM reports ionisation in the substrate-free enzyme)”, “V4 Kemp eliminase (GNCA4-12 ancestral beta-lactamase-based de novo Kemp eliminase with an extra C-terminal polypeptide segment) (synthetic construct (reconstructed ancestral GNCA node beta-lactamase, last common ancestor of various Gram-negative bacteria); W229D;F290W;I250V;R256H;L260F;V261L;H291V;C-terminal polypeptide segment insertion)” showed a pKa of 6.7.

Take “V4-4 Kemp eliminase (V4 + L49I/G58Q/R230I/A257P/A262C) (synthetic construct (reconstructed ancestral class A beta-lactamase, GNCA node, last common ancestor of various Gram-negative bacteria); W229D;F290W;I250V;R256H;L260F;V261L;H291V;L49I;G58Q;R230I;A257P;A262C;insertion of extra C-terminal polypeptide segment (sequence not stated))”: the pKa result under setting [1] is “about 7”.

For orientation: pKa means the negative logarithm of the acid dissociation constant. A higher pKa goes with a weaker acid or stronger base.
